Test results reported in patent publication US20100035814A1 (Novo Nordisk, published 2010).
Residue numbers refer to the chain shown, from its start. Names may count otherwise. Like-named read-outs stand apart in the source and are kept apart here.

Experiments:
[1] = target: T1, soluble form of the PRL receptor (UniProt P16471 25-234, limits assumed); test: SPR (Biacore 3000), soluble PRL receptor amine-coupled to CM5 chip, prolactin molecule injected at 500 nM
T1 construct: extracellular domain; It gives no residues, tag or species; also called prolactin receptor; immobilized receptor
T1 sequence (looked up): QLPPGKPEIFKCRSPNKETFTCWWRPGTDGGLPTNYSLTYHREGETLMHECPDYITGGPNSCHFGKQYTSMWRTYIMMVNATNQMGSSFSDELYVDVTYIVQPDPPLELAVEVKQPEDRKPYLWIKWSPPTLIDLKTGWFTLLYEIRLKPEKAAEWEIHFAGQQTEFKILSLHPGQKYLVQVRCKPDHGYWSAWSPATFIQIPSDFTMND
Procedure: The soluble form of the PRL receptor (25 μg/ml in 10 mM sodium acetate, pH 3.0) was injected into a Biacore 3000 instrument at a flow rate of 5 μl/min and coupled to a CM5 sensor chip by amine coupling chemistry. […] Data evaluation was performed in BiaEvaluation 4.1. Regeneration was accomplished with 4.5 M MgCl₂ between runs.
Using the assay as described in Example 8, the binding of N-terminally pegylated versions of the prolactin antagonist PRL(12-199) Q12S G129R to the prolactin receptor was determined.

[2] = target: T2, hPRLR on stably transfected BaF/3 cells (human, UniProt P16471 25-622); test: cell-based or functional assay
T2 sequence (looked up): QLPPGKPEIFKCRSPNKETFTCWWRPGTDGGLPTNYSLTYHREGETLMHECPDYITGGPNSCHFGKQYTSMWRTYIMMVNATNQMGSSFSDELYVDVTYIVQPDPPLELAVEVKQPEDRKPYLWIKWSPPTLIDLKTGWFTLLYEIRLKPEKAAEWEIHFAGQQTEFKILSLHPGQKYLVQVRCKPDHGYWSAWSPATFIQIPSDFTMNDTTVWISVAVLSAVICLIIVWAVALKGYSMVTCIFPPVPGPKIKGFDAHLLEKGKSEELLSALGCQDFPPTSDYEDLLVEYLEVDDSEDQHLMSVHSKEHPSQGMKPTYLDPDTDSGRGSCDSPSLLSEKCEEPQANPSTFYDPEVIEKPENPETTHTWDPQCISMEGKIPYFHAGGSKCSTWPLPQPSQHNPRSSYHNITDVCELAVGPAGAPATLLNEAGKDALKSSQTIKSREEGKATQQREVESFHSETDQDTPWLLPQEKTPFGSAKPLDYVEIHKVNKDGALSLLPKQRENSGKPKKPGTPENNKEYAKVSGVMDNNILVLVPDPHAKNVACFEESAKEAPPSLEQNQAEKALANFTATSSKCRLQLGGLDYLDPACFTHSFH

[3] = target: T2, hPRLR on stably transfected BaF/3 cells; test: cell-based or functional assay; remark: listed apart in the source

B1: N^alpha,13((4-(2-Methyl-4-(10 kDa mPEGyloxy)butanoylamino)butoxy)imino)acetyl G129R-PRL(13-199) (E2) (ligand)
chain: VTLRDLFDRAVVLSHYIHNLSSEMFSEFDKRYTHGRGFITKAINSCHTSSLATPEDKEQAQQMNQKDFLSLIVSILRSWNEPLYHLVTEVRGMQEAPEAILSKAVEIEEQTKRLLERMELIVSQVHPETKENEIYPVWSGLPSLQMADEESRLSAYYNLLHCLRRDSHKIDNYLKLLKCRIIHNNNC
modifications: alpha-amino group of residue 13 carries ((4-(2-methyl-4-(10 kDa mPEGyloxy)butanoylamino)butoxy)imino)acetyl (oxime formed on the periodate-oxidised N-terminal serine of N^alpha,13-seryl G129R-PRL(13-199))
notes: also called N-terminally pegylated PRL(12-199) Q12S G129R (10 kDa PEG)
Binder B1 has a Kd [1] of 55 nM.

B2: N^alpha,13((4-(3-(5 kDa mPEGyloxy)propionylamino)butoxy)imino)acetyl G129R-PRL(13-199) (E4) (ligand)
chain: B1 chain
modifications: alpha-amino group of residue 13 carries ((4-(3-(5 kDa mPEGyloxy)propionylamino)butoxy)imino)acetyl (oxime formed on the periodate-oxidised N-terminal serine of N^alpha,13-seryl G129R-PRL(13-199))
notes: also called N-terminally pegylated PRL(12-199) Q12S G129R (5 kDa PEG)
Binder B2 has a Kd [1] of 42 nM.

B3: N^alpha,13((4-(4-(20 kDa mPEGyloxy)butanoylamino)butoxy)imino)acetyl G129R-PRL(13-199) (E3) (ligand)
chain: B1 chain
modifications: alpha-amino group of residue 13 carries ((4-(4-(20 kDa mPEGyloxy)butanoylamino)butoxy)imino)acetyl (oxime formed on the periodate-oxidised N-terminal serine of N^alpha,13-seryl G129R-PRL(13-199))
notes: also called N-terminally pegylated PRL(12-199) Q12S G129R (20 kDa PEG)
Work on B3 yielded a Kd [1] of 70 nM.

B4: Ser PRL S33A Q73L G129R K190R (ligand)
chain: SLPICPGGAARCQVTLRDLFDRAVVLSHYIHNLASEMFSEFDKRYTHGRGFITKAINSCHTSSLATPEDKEQALQMNQKDFLSLIVSILRSWNEPLYHLVTEVRGMQEAPEAILSKAVEIEEQTKRLLERMELIVSQVHPETKENEIYPVWSGLPSLQMADEESRLSAYYNLLHCLRRDSHKIDNYLKLLRCRIIHNNNC
For B4, the “EC50 of PRL in the presence of 1 µM Ser PRL S33A Q73L G129R K190R, proliferation of BaF/3 cells stably transfected with hPRLR” value [2] was 531 nM.

B5: N^alpha1-(3-(20 kDa-mPEGyl)propyl) Ser PRL S33A Q73L G129R K190R (ligand)
chain: B4 chain
modifications: N-terminal alpha-amino group (N^alpha1, of the added serine) alkylated with 3-(20 kDa mPEGyl)propyl by reductive amination
With B5 the “EC50 of PRL in the presence of 1 µM Ser PRL S33A Q73L G129R K190R PEG20k, proliferation of BaF/3 cells stably transfected with hPRLR” value [2] was 19 nM.

B6: PRL wildtype (ligand)
chain: LPICPGGAARCQVTLRDLFDRAVVLSHYIHNLSSEMFSEFDKRYTHGRGFITKAINSCHTSSLATPEDKEQAQQMNQKDFLSLIVSILRSWNEPLYHLVTEVRGMQEAPEAILSKAVEIEEQTKRLLEGMELIVSQVHPETKENEIYPVWSGLPSLQMADEESRLSAYYNLLHCLRRDSHKIDNYLKLLKCRIIHNNNC
notes: also called wtPRL; human prolactin
For B6, the “EC50, proliferation (AlamarBlue) of BaF/3 cells stably transfected with hPRLR” value [2] was 0.15 nM, the “EC50, proliferation (AlamarBlue) of BaF/3 cells stably transfected with hPRLR” value [3] was 0.15 nM and the Kd [1] was 32 nM.

B7: PRL S61A G129R (ligand)
chain: B6 chain with S61A, G129R
With B7 the “EC50 of PRL in the presence of 1 µM PRL S61A G129R, proliferation of BaF/3 cells stably transfected with hPRLR” value [3] was 116 nM.

B8: N^alpha1-(3-(20 kDa-mPEGyl)propyl)PRL S61 G129R ("PRL S61A G129R PEG20k") (ligand)
chain: B6 chain with S61A, G129R
modifications: N-terminal alpha-amino group (N^alpha1) alkylated with 3-(20 kDa mPEGyl)propyl by reductive amination
For B8, the “EC50 of PRL in the presence of 1 µM PRL S61A G129R PEG20k, proliferation of BaF/3 cells stably transfected with hPRLR” value [3] was 4.6 nM and the Kd [1] was 71 nM.

B9: PRL(12-199) Q12S G129R (ligand)
chain: SVTLRDLFDRAVVLSHYIHNLSSEMFSEFDKRYTHGRGFITKAINSCHTSSLATPEDKEQAQQMNQKDFLSLIVSILRSWNEPLYHLVTEVRGMQEAPEAILSKAVEIEEQTKRLLERMELIVSQVHPETKENEIYPVWSGLPSLQMADEESRLSAYYNLLHCLRRDSHKIDNYLKLLKCRIIHNNNC
B9 was tested, and the “EC50 of PRL in the presence of 1 µM PRL(12-199) Q12S G129R, proliferation of BaF/3 cells stably transfected with hPRLR” value [2] was 40 nM.
